Patent publication US20040116653A1 (JARROW FORMULAS, published 2004)
Ends that are not written are not given here.

B1: octameric branched peptide presenting the GPGTTK sequence (GPGTTK MBP) (peptide)
peptide 1: GPGTTK
peptide 2: GPGTTK
peptide 3: GPGTTK
peptide 4: GPGTTK
peptide 5: GPGTTK
peptide 6: GPGTTK
peptide 7: GPGTTK
peptide 8: GPGTTK
modifications: Each of the eight arms is bound through its C-terminus (Lys 6) to an 8-branching lysine core (Map resin), which cannot be written as a linear chain. The peptide was conjugated with biotin for the rshCD4 ELISA; the site is not stated.
B2: synthetic soluble peptide corresponding to amino acids 51-74 of CD38 (CD3851-74) (peptide)
peptide: SGPGTTKRFPETVLARCVKYTEIH
modifications: also: biotin conjugated in ELISA, site not given here

Biological target: human CD4 on cells (MT-2, MT-4 cells; mouse SR.hCD4 cells transfected with human CD4) (human, UniProt P01730 26-458)
Assay: cell-based or functional assay

| Binder | EC50, inhibition of HIV-1IIIB replication in MT-4 cells (p24 ELISA, day 3) [µM] |
| --- | --- |
| B1 | 4.3 |
| B2 | 2.2 |
